This passage reports Kd results from publication PMC8062530 (2021).

By Kd is commonly meant the equilibrium constant for the complex coming apart. A lower Kd goes with a tighter complex.

What all share (assay): BLI
The target in one experiment is T1, Siglec-14 Fc-fusion (UniProt Q08ET2 17-358).
T1 chain: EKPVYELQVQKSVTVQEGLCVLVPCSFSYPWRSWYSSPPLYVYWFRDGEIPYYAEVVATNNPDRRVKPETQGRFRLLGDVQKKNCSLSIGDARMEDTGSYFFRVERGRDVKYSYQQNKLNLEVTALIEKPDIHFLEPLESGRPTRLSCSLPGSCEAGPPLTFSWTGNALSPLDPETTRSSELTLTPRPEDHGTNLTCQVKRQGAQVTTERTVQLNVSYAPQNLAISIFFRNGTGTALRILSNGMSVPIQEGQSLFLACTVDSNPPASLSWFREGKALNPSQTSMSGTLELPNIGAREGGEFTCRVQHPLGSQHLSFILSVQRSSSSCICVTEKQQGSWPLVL

The next experiment concerns the target T2, Siglec-10 Fc-fusion (UniProt Q96LC7 17-550).
T2 chain: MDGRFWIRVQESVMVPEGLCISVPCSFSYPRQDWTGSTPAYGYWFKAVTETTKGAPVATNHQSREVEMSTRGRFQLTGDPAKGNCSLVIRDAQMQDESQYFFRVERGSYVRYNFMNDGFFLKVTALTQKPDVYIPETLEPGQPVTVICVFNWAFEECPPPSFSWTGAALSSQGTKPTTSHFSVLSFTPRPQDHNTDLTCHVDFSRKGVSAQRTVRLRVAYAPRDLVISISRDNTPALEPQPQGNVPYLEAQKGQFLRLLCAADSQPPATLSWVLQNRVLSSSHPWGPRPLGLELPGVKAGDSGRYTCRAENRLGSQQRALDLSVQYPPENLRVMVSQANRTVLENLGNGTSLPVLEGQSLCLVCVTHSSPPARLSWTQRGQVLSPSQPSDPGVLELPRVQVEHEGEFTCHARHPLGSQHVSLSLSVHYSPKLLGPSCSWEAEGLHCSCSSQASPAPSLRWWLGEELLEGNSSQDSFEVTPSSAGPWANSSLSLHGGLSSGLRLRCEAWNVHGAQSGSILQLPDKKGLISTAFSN

For another experiment, the target named is Siglec-9 Fc-fusion (UniProt Q9Y336 18-348).
Sequence of Siglec-9 Fc-fusion (Q9Y336 18-348): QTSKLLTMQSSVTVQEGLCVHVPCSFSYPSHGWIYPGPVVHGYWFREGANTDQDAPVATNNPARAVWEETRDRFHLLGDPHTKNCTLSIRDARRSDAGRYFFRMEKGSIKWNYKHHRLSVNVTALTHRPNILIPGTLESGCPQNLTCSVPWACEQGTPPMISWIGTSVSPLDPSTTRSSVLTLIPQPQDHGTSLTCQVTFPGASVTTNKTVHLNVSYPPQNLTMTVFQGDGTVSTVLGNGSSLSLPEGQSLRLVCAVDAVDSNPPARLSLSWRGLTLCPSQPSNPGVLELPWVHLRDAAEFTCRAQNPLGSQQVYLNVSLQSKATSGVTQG

B1: extracellular domain of PTGFRN (aa 26-832) with a C-terminal histidine tag (domain or fragment)
chain: VPTATLVRVVGTELVIPCNVSDYDGPSEQNFDWSFSSLGSSFVELASTWEVGFPAQLYQERLQRGEILLRRTANDAVELHIKNVQPSDQGHYKCSTPSTDATVQGNYEDTVQVKVLADSLHVGPSARPPPSLSLREGEPFELRCTAASASPLHTHLALLWEVHRGPARRSVLALTHEGRFHPGLGYEQRYHSGDVRLDTVGSDAYRLSVSRALSADQGSYRCIVSEWIAEQGNWQEIQEKAVEVATVVIQPSVLRAAVPKNVSVAEGKELDLTCNITTDRADDVRPEVTWSFSRMPDSTLPGSRVLARLDRDSLVHSSPHVALSHVDARSYHLLVRDVSKENSGYYYCHVSLWAPGHNRSWHKVAEAVSSPAGVGVTWLEPDYQVYLNASKVPGFADDPTELACRVVDTKSGEANVRFTVSWYYRMNRRSDNVVTSELLAVMDGDWTLKYGERSKQRAQDGDFIFSKEHTDTFNFRIQRTTEEDRGNYYCVVSAWTKQRNNSWVKSKDVFSKPVNIFWALEDSVLVVKARQPKPFFAAGNTFEMTCKVSSKNIKSPRYSVLIMAEKPVGDLSSPNETKYIISLDQDSVVKLENWTDASRVDGVVLEKVQEDEFRYRMYQTQVSDAGLYRCMVTAWSPVRGSLWREAATSLSNPIEIDFQTSGPIFNASVHSDTPSVIRGDLIKLFCIITVEGAALDPDDMAFDVSWFAVHSFGLDKAPVLLSSLDRKGIVTTSRRDWKSDLSLERVSVLEFLLQVHGSEDQDFGNYYCSVTPWVKSPTGSWQKEAEIHSKPVFITVKMDVLNAFKYP
On to B1, for which the Kd with Siglec-14 Fc-fusion was found to be 1100 nM; with Siglec-10 Fc-fusion, 760 nM; with Siglec-9 Fc-fusion it was 4200 nM.
